Experimental findings from patent publication US20250367237A1 (TENEOBIO, published 2025) are described below.

Numbering of substitutions follows the chain as printed.

T1: human c-Kit, GNNK- isoform, expressed on SEM cells (human, UniProt P10721 26-976)
T1 chain: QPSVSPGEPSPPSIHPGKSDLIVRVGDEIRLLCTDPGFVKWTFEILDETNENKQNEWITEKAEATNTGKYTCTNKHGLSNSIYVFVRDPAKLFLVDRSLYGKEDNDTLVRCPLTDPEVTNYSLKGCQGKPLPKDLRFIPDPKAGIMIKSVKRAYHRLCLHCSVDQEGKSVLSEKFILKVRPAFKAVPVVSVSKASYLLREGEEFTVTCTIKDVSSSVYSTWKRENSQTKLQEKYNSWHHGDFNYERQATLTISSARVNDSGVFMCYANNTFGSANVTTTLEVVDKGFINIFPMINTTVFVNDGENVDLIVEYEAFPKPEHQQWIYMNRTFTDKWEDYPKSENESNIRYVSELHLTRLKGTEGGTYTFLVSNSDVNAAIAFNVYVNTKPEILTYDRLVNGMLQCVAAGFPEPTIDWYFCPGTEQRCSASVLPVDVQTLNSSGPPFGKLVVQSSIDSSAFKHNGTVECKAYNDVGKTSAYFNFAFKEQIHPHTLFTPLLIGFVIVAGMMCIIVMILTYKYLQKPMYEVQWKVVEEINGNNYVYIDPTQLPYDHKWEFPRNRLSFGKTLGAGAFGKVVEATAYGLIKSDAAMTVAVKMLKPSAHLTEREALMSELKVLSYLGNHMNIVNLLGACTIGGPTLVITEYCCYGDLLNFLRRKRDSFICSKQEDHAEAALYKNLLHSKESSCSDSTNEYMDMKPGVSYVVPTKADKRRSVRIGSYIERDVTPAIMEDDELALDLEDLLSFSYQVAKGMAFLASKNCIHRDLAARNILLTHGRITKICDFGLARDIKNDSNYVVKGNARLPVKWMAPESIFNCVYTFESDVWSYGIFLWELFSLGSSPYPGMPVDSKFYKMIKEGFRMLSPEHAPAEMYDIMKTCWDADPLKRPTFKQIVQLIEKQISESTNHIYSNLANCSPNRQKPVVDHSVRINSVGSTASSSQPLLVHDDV

B1: anti-c-Kit single domain antibody Clone ID # 408198 (VHH)
VHH: QLQLQESGPGLVKPSETLSLTCTVSGGSISSSSYYWGWIRQPPGKGLEWIGSIDYNGGTYNNPSLKSRVTISVDTSKNQFSLKLSYVTAADTAVYYCARQNPRRYASGASDYRGQGTLVTVSS
notes: also called F18 family
B2: anti-c-Kit single domain antibody Clone ID # 408366 (VHH)
VHH: EVQLLESGGGLVQPGGSLRLSCAASGLTISTYAMSWVRQAPGKGLEWVSAISTGGSSTYYADSVKGRFTISRDNSKNTLYLQMNSLRAEDTAVYYCATGYDSSGHYYGGFDYRGQGTLVTVSS
notes: also called F06 family
B3: anti-c-Kit single domain antibody Clone ID # 407921 (VHH)
VHH: B2 VHH with L27F, I29F, S30D, T31S, T53V, G54R, S56G, Y95S, S102P
notes: also called F06 family
B4: anti-c-Kit single domain antibody Clone ID # 407922 (VHH)
VHH: B2 VHH with T31S, S57R, Y95F
notes: also called F06 family
B5: anti-c-Kit single domain antibody Clone ID # 408389 (VHH)
VHH: B2 VHH with L27F, I29F, S30D, T31S, K43E, S56G, T78M, Y80F, Y95S, H105Y
notes: also called F06 family

One experiment addresses T2, recombinant human c-Kit (Acro Biosystems, #CD7-H52H4) (human, UniProt P10721 26-520).
T2 construct: Bought protein; It was loaded on Ni-NTA sensors for binning, so it probably carries a His tag; also called antigen
Description: BLI (Octet HTX), antibody on AHC sensors, c-Kit in solution, 1:1 model. As for the experimental part: Table E3 summarizes affinity and epitope bin information for example anti-c-Kit single domain antibodies of the present disclosure. The affinity of each single domain antibody to recombinant human c-Kit (Acro Biosystems, #CD7-H52H4) was measured by Bio-layer interferometry (BLI) using an Octet HTX. AHC (Anti-hIgG Fc Capture) sensors were used to immobilize test antibody at 5 μg/mL. After baseline readings, sensors were dipped into antigen solutions (starting at 500 nM followed by a 7-point, 2-fold dilution series). Association and dissociation were measured for 180 and 240 seconds, respectively. Data were analyzed with Octet Data Analysis v11.0 HT (ForteBio) using a standard 1:1 binding model. Epitope bins for the single domain antibodies were determined by an in-tandem competition BLI binding experiment using an Octet HTX. The antigen (5 μg/mL) was loaded on the sensor Ni-NTA sensor, followed by a baseline in kinetic buffer. The antigen coated sensor was then dipped into a saturating concentration Antibody 1. A second baseline was then set for 300 seconds. The antigen-Antibody 1 complex was dipped into Antibody 2 solution for 180 seconds and then allowed to dissociate.
In the case of B1, the Kd is 7.28 nM.
Take B2: the Kd turned out to be 4.71 nM.
Same read-out and setting: the figure for B3 is 2.77 nM.

The next experiment has as its target T3, human c-Kit, GNNK+ isoform, expressed on SEM cells (human, UniProt P10721 26-976).
T3 construct: also called SEM (GNNK+); CD117
Kind of experiment: flow cytometry cell binding dose curve, SEM cells expressing human GNNK+ c-Kit. How it is done: (§1) The single domain antibodies were tested at a starting concentration of 50 nM, followed by 5-fold serial dilutions for an 8-point dose curve. All washes and dilutions of cells, antibodies, and reagents were performed using flow buffer (lx phosphate buffered saline (PBS), 1% bovine serum albumin (BSA), and 0.1% NaN₃). Cells were pelleted and resuspended at 1×10⁶ cells/mL in flow buffer. Then, 50 μL cells were combined with 50 μL of test antibody and incubated 30 minutes at 4° C., followed by two wash steps with flow buffer. Cells were then resuspended in 50 μL PE-conjugated secondary diluted to 1.25 μg/mL (Southern Biotech #2042-09) and incubated for 20 minutes at 4° C. After two wash steps, cells were resuspended in flow buffer and analyzed using a BD Celesta system. PE mean fluorescence intensity was plotted as a fold over background (cells incubated with secondary detection antibody only).
(§2) To determine cell binding EC50 values for example anti-c-Kit single domain antibodies of the present disclosure, cell binding dose curves were performed on SEM cells expressing human GNNK+c-Kit isoform, SEM cells expressing human GNNK− c-Kit isoform, and NOMO-1 cells expressing human c-Kit. The single domain antibodies were tested at a starting dose of 50 nM, followed by 5-fold serial dilutions for an 8-point dose curve as described in Example 2. The transformed data were plotted as an xy-graph using the non-linear regression curve fit (available in GraphPad Prism 8.4.3) to obtain the EC50 values (nM), which are summarized in Table E2.
Consider B1, for which the EC50 was found to be 0.25 nM.
In the case of B2, the EC50 amounted to 0.08 nM. This EC50 lies about 3.1-fold lower than the previous one.
Molecule B3 gave an EC50 of 0.03 nM.

Another experiment concerns the target T1, human c-Kit, GNNK- isoform, expressed …. Kind of experiment: flow cytometry cell binding dose curve, SEM cells expressing human GNNK- c-Kit.
Molecule B1 returned an EC50 of 0.58 nM.
B2 had an EC50 of 0.09 nM.
For the molecule B3, the EC50 came to 0.03 nM.

The next experiment shares this target. Description: flow cytometry, antibody supernatant on SEM cells expressing human c-Kit GNNK-, PE secondary.
Take B1: the “fold over background MFI signal” value stood at 103 fold over background.
On to B2, for which the “fold over background MFI signal” value amounted to 1760 fold over background.
Still for that read-out and setting: under B4 stands 1740 fold over background; under B5, 1790 fold over background.
Turning to B3, the “fold over background MFI signal” value was determined as 1750 fold over background.

The next experiment concerns the target T4, human c-Kit expressed on NOMO-1 cells (human, UniProt P10721 26-976).
T4 construct: Endogenous c-Kit of the NOMO-1 AML cell line
Kind of experiment: flow cytometry, antibody supernatant on NOMO-1 cells expressing c-Kit, PE secondary. How it is done:
(§3) Pelleted cells were resuspended in flow buffer (lx phosphate buffered saline (PBS), 1% bovine serum albumin (BSA), and 0.1% NaN₃) at 1.25×10⁶ cells/mL. Antibody-containing supernatants were diluted 1:5 in flow buffer and 40 μL cells plus 10 μL diluted antibody supernatant were incubated for 30 minutes at 4° C. Cells were washed with flow buffer and resuspended in 50 μL phycoerythrin (PE)-conjugated secondary antibody (Southern Biotech #2042-09) diluted in flow buffer to 1.25 μg/mL and incubated for 20 minutes at 4° C. After two wash steps, cells were resuspended in flow buffer and analyzed using a Guava easyCyte 8HT system. Table E1 summarizes the target binding activity of the anti-c-Kit single domain antibodies as fold over background MFI signal.
As to B1, the “fold over background MFI signal” value was 45.7 fold over background.
On to B2, for which the “fold over background MFI signal” value came out at 43.2 fold over background.
Take B4: the “fold over background MFI signal” value is 31.1 fold over background.
Turning to B5, the “fold over background MFI signal” value was 43.9 fold over background.
Turning to B3, the “fold over background MFI signal” value came out at 30.5 fold over background.

Another experiment has as its target T3, human c-Kit, GNNK+ isoform, expressed …. Description: flow cytometry, antibody supernatant on SEM cells expressing human c-Kit GNNK+, PE secondary. As for the experimental part:
as §3
In the case of B1, the “fold over background MFI signal” value is 388 fold over background.
Take B2: the “fold over background MFI signal” value came to 945 fold over background.
Turning to B4, the “fold over background MFI signal” value was 829 fold over background.
With B5, the “fold over background MFI signal” value came to 934 fold over background.
Regarding B3, the “fold over background MFI signal” value came out at 814 fold over background.

Another experiment addresses T4, human c-Kit expressed on NOMO-1 cells. Description: flow cytometry cell binding dose curve, NOMO-1 cells expressing human c-Kit. As for the experimental part: as §1, §2
Molecule B1 showed an EC50 of 0.32 nM.
In turn, B2 displayed an EC50 of 0.39 nM.
On the same count and under the same terms, under B3 stands 0.26 nM.
